The values below are quoted from earlier work in publication PMC12023029.

In this data set the target is His50 (UniProt position 50, KEGVVHGVATV). As to the kind of experiment: NMR (per title of cited reference 59). The settings on record: free monomer, disordered.

As for “alpha-synuclein (aSyn) (Homo sapiens (inferred; the article does not name the species and discusses Parkinson's disease patients))”, the pKa (as a rule, the negative logarithm of the acid dissociation constant) by setting is: (150 mM salt, high salt) 6.5; (low salt, article gives '4' mM as the lower end of the salt change) 6.8.
